Among the data in article PMC5923107 (2018) are Kd values, retold here.

This assay deals with biotinylated HA antigen of B/Florida/04/2006 (influenza B virus B/Florida/04/2006, biotin (site not stated)). The assay is described as follows: BLI.

B1: TRL848 (antibody, V domains shown)
VH: QVQLLESGGDVVQPGTSLRLSCAASGFSLWTSGMHWVRQAPGKGLEWVAVMSYDETKKYYADSVRGRFSISRDNSRNTLYLQMNSLRVEDTAVYFCAKPRLDYLDYFHAADSWGQGTLVSVSS
VL: DIVLTQPPSVSVAPGQTATITCGGNYIGSKSVNWYQQRPGHAPVLVVYDDSDRPSGIPDRFSGSNSRSTATTATLTISRVEAGDEADYYCQVWETSEDLWVFGGGTKLTVL
As to B1, binding was characterised by a dissociation constant (Kd) of 1.7 nM.

B2: TRL847 (antibody, V domains shown)
VH: QVQLVESGGGLVQPGGSLRLSCVASGFTFSRFSMNWVRQAPGMGLEWVSYISDTGRTIYYADSVKGRFTISRDNDKNTLYLQMKSLRDEDSAFYYCARDPDTPFVRAFDSWGQGVLVTVSS
VL: DIVMTQSPSFLSASVGDRVTITCRTSQVISSYLAWYQQRPGKAPKLLIYAASTLQSGVPSRFSGSGSGTRFSLTISNLQPEDFATYFCQQLTTYPPITFGQGTRLEIK
Regarding B2, the Kd (usually a measure of binding affinity in units of concentration) was found to be 0.7 nM.

B3: TRL854 (antibody, V domains shown)
VH: QVQLVESGAEVKKPGASVRVSCKGSGYTFTAYHMHWVRQAPGQGFEWVGWINPNSGATYYTSTFEGRVTMTRDTSITTAYMELSSLRSDDTAVYYCATDIVVERDASLGGFNSYGMDVWGQGTTVTVSS
VL: DIEMTQSPLSLPVTPGEPASISCRSSQSLLHSNGYNHLAWYLQKPGRSPHLLIYLASTRASGVPDRFSGSGSGTDFTLKISRVEAEDVGIYYCMQSLQTSITFGQGTRLEIK
The molecule B3 returned a Kd of 8.8 nM.
